# Experiment: yeast display, Sf9 membrane polyspecificity reagent, FACS + sequencing; frameworks hold sequencing errors
# Summary of the method: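 Nanobodies from a synthetic yeast display library (Saccharomyces cerevisiae BJ5465), induced 36–48 hours with galactose, were stained 1 hour at 4 °C with 10% biotinylated, detergent-solubilized Sf9 membrane reagent, enriched on streptavidin microbeads, then FACS-sorted. Anti-HA (expression) and streptavidin (reagent binding) fluorescence set low and high (top ~1%) gates. Polyreactivity labels come from the gate of origin. Genes were colony-PCR amplified, MiSeq 2 × 250 sequenced and filtered by CDR length.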
row,Sequence,polyreactivity (PSR sort gate)
1,QVQLVESGGGLVQAGGSLRLSCAASGRTFVQNAMGWYRQAPGKERELVASIRYRDGSTYYADSVKGRFTISRDNAKNTVYLQMNSLKPEDTAVYYCAVRVTSDYYASRYYYWGQGSQVTVSS,high polyreactivity
2,QVQLVESGGGLVQAGGSLRLSCAASGRTFVRNAMGWYRQAPGKERELVAAISKSGGITYYADSVKGRFTISRDTAKNTVYLQMNSLKPEDTAVYYCAKRTSYYRSGWSHYGYWGQGTQVTVSS,high polyreactivity
3,QVQLVESGGGLVQAGGSLRLSCAASGRTFVRNAMGWYRQAPGKVRELVAAISSIGDSTYYADSVKGRFTISRDNAKNTVYLQMNSLKPEDTAVYYSNARGYVYYRMGYWGQGTQETVSS,low polyreactivity
4,QVQLVESGGGLVQAGGSLRLSCAASGRTFVRNTMGWYRQAPGKERELVAAISGGGSTYYADSVKGRFTISSDNAKKTVYLQMNSLKPEDTAVYYCAATTRRQGGKRFDYWGQGTQVTVSS,high polyreactivity
5,QVQLVESGGGLVQAGGSLRLSCAASGRTFVRYAMGWYRQAPGKERELVAAISWSGGSTYYADSVKGRFTISRDNAKNTVYLQMNSLKPEDTAVYYCATLSAWKASSYDYWGQGTQVTVSS,high polyreactivity
6,QVQLVESGGGLVQAGGSLRLSCAASGRTFVRYAMGWYRQAPGQERELVARITSRGTSTYYADSVKGRFTISRDNAKNTVYLQKNSLKPEDTAVYYCNKVRTFRDKSRYDYWGQGTQVTVSS,low polyreactivity
7,QVQLVESGGGLVQAGGSLRLSCAASGRTFVSNAMGWYRQAPGKERELVAAINSGGSTTYADSVKGRFTISRDNAKNTVYLKMNSLIPEDTAVYYFARRSRYSKGYDYWGQGTQVTVSS,low polyreactivity
8,QVQLVESGGGLVQAGGSLRLSCAASGRTFVSYVMGWYRQAPGKERAFVAAISRSGGNTYYADSVKGRFTMSRDNAKNTVYLQMNSLKPEDTAVDYCAAKLGPLVYDHDYWGQGTQVTVSS,high polyreactivity
9,QVQLVESGGGLVQAGGSLRLSCAASGRTFVTNAMGWYRQAPGKERELVATINWSGGRTHYADSVKGRFTISRDNAKNTVYLQMNSLKPEDTEVYYCAKASSRRYWTIRDGDYWGQGTQVTVSS,low polyreactivity
10,QVQLVESGGGLVQAGGSLRLSCAASGRTFVVKAMGWYRQAPGKERELVAAITRRGGITYYADSVKGRITISRDNAKNTVYLQMNSLKPEDTAVSYCAADRSYYPDTRTTSGYNYWGQGTQVTVSS,low polyreactivity
11,QVQLVESGGGLVQAGGSLRLSCAASGRTFVVNYMGWYRQAPGKERELVATINVSGGSTSYADSVKGRFTISRDNAKNTVYLQMNSLKPEDTAVYYCNVDTYVEYPHDYWGQGTQVTVSS,low polyreactivity
12,QVQLVESGGGLVQAGGSLRLSCAASGRTFVVYAMGWYGQAPGKERELVAGITTRVGSTYYADSVKGRFTISRDNAKNTVYLQMNSLKPEDTAVYYCAARGSRYVGRVRYDYWGQGTQVTVSS,high polyreactivity
13,QVQLVESGGGLVQAGGSLRLSCAASGRTFVVYAMGWYRQAPGKERELVAAISGRGGRTYYADSVKGRFTISRDNAKNTVYLQMNSLKPEETAVYYCATRSSVPKRFTRYGYWGHGTQVTVSS,high polyreactivity
14,QVQLVESGGGLVQAGGSLRLSCAASGRTFVVYAMGWYRQAPGKERELVAVISFTGDSTFYADSVKGRFTISRDNAKNTVYLQMNSLKPEDTAVYYCAADLDWSPHFGLPYDYWGQGTQVTVSS,low polyreactivity
15,QVQLVESGGGLVQAGGSLRLSCAASGRTFVVYAMGWYRQAPGKERELVAVISFTRDSTFYADSVKGRFTISRDNAKNTVYLQMNSLKPEDTAVYYCAADFRRVFSKYSYYLYFEFDYWGQGTQVTVSS,low polyreactivity
16,QVQLVESGGGLVQAGGSLRLSCAASGRTFVVYTMGWYRQAPGKERELVAAISWRGGTTYYADSVKGRFTISRDNAKNTVYLQMNSLKPEDTAVYYCAARVVYYYRERYYWGQGTQVTVSS,high polyreactivity
17,QVQLVESGGGLVQAGGSLRLSCAASGRTFVWNVMGWYRKAPGKEREFVAAISGGSTYYADSVKGRFTISRDNAKNTVYLQMNRLKPEDTAVNYCAAASKLHPRYEYWGQGTQVTVSS,low polyreactivity
18,QVQLVESGGGLVQAGGSLRLSCAASGRTFVYNAKGWYRQAPGKEREVVAGITGSGDSTYYADSVKGRFTISRDNAKNTVYLQMNSLKPEDTAVYYCNQLVEEDYWGQGTQVTVSS,low polyreactivity
19,QVQLVESGGGLVQAGGSLRLSCAASGRTFVYNAMGWYRQAPGKERELVAAIDGGGDRTYYADSVKGRFTISRDNAKNTVYLQMNSLKPEDTAVYYCARDPVVTYYYSYPEGDYWGQGTQVTVSS,low polyreactivity
20,QVQLVESGGGLVQAGGSLRLSCAASGRTFVYNAMGWYRQAPGKERELVAAIRFSGGRTYYADSVKGRFTISRDNAKNTVYLQMNSLKPEDTAVYYCAVTGELTLYTWRSFEYYYWGQGTQVTVSS,low polyreactivity
21,QVQLVESGGGLVQAGGSLRLSCAASGRTFVYNAMGWYRQAPGKERELVAAISSSGGSTRYADSVKGRFTISRDNAKNTVYLQMNSLKPEDTAVYYCNRLRYSNRYDTWGQGTQVTVSS,high polyreactivity
22,QVQLVESGGGLVQAGGSLRLSCAASGRTFVYTMGWYRQAPGKERELVAAIRYSGGRTYYADSVKGRFTISRDNAQNTVYLQMNSLKPEDTAVYYCAARNYATGVRYDYWGQVTQVTVSS,high polyreactivity

row,Sequence,polyreactivity (PSR sort gate)
1,QVQLVESGGGLVQAGGSLRLSCAASGRTFVYYAMAWYRQAPGKERELVAAISRTGVNTYYADSVKGRFTISRDNAKNTVYLQMNSQKPEDTAVYYCNKVYRADRSSVPYEYWGQGTQVTVSS,high polyreactivity
2,QVQLVESGGGLVQAGGSLRLSCAASGRTFVYYAMGWYRQAPGKEREFVATITSSGGSTYYADSVKGRFTISRDNAKNTVYLQMNSLKPEDTAVYYCNADSVSSPPYYDYWGQGTQVTVSS,high polyreactivity
3,QVQLVESGGGLVQAGGSLRLSCAASGRTFVYYAMGWYRQAPGKERELVAAIRSGGSTNYADSVKGRFTISRDNAKNTVYLQMNSLKPEDTAVYYCNAVHYYYYKGDYWGQGTQVTVSS,high polyreactivity
4,QVQLVESGGGLVQAGGSLRLSCAASGRTFVYYAMGWYRQAPGKERELVAAISGSGGSTYYADSVKGRFTISRDNAKNTVYLQMNSLKPEDTAVYYCNVRGPGFYWNWGQSHYYGYDYWGQGTQVTVSS,high polyreactivity
5,QVQLVESGGGLVQAGGSLRLSCAASGRTFVYYAMGWYRQAPGKERELVAAITSGGNTYYADSVKGRFTISRDNAKNTDYLQMNSLKPEDTAVYYCAAKRRRSFDYWGQGTQVTVSS,high polyreactivity
6,QVQLVESGGGLVQAGGSLRLSCAASGRTFVYYAMGWYRQAPGKERELVARISSSGGRTSYADSVKGRFTISRDNAKNTVYLQMNRLKPEDTAVYYCNAGRYRAGGWGVGEGYWGQGTQVTVSS,high polyreactivity
7,QVQLVESGGGLVQAGGSLRLSCAASGRTFVYYDMGWYRQAPGKERELVASISSGDSTNYADSVKGRFTISRDNAKNTVYLQMNSLKPEDTAVYDCAARGYLRGEQLYVFIRYDYWGQGTQVTVSS,low polyreactivity
8,QVQLVESGGGLVQAGGSLRLSCAASGRTFVYYTMGWYRQAPGKERELVAGIRRRGGRTYYADSVKGRFTISRDNAKNTVYLQMNSLKPEDTAVYYCAAQTRYQGYQEYYYWGQGTQVTVSS,high polyreactivity
9,QVQLVESGGGLVQAGGSLRLSCAASGRTFWFNHMGSYRQAPGKERELVAAITWNGGSTYYADSVKGRFTISRDNAKNTVYLQMNSLKPEATAVYYCARTSYARYRNGWTYDHWGQGTQVTVSS,low polyreactivity
10,QVQLVESGGGLVQAGGSLRLSCAASGRTFWGYGMGWYRQAPGKERELVATISSGGSTYYADSVKGRFTISRDNAKNTVYLQMNSLKPEDTAVYYCAARPPRTYWRYQSDYWGQGTQVTVSS,high polyreactivity
11,QVQLVESGGGLVQAGGSLRLSCAASGRTFWKYAMGWYRHAPGKERELVAAITDDDSTDYADSVKGRFTISRDNAKNTVYLQMNSLKPEDTAVYYCNADSSRYYRALEYWGQGTQVTVSS,low polyreactivity
12,QVQLVESGGGLVQAGGSLRLSCAASGRTFWKYVMGWYRQAPGKERELVAVISRPAGSTYYADSVKGRFTISRDNAKNTVYLQMNSLKPEDTAVYYCAKRPKNKPVLGDYDQWGQGTQVTVSS,low polyreactivity
13,QVQLVESGGGLVQAGGSLRLSCAASGRTFWNAMGWYRQEPGKERELVATITSGGITNYADSVKGRFTISRDNAKNTVYLQMNSLKPEDTAVYYCAARPYTWRNFRPSDYWGQGTQVTVSS,high polyreactivity
14,QVQLVESGGGLVQAGGSLRLSCAASGRTFWNYAKGWYRQAPGNERELVAVIRFSDGSTYYADSVKGRFTISRDNAKNTVYLQMNSLKPEDTAVYYCAAKGPRRWGSGFDYWGQGTQVTVSS,low polyreactivity
15,QVQLVESGGGLVQAGGSLRLSCAASGRTFWNYAMGWYRQAPGKERELVAVIRFSDVSTYYADSVKGRFTISRDNAKNTVYLQMNSLKPEDTAVYYCAAKGPRRWGSGFDYWGLGTQVTVSS,low polyreactivity
16,QVQLVESGGGLVQAGGSLRLSCAASGRTFWPYAMGWYRQAPGKERELVAAISTSGGSTYYADSVKGRFTISRDNAKNTVYLQMNSLKPEDTAVYYCAAYSTLTPAYEYWGQGTQVTVSS,high polyreactivity
17,QVQLVESGGGLVQAGGSLRLSCAASGRTFWRNAMGWYRQAPGKERELVAAINSGGRTYYADSVKGRFTISRDNAKNTVYLQMNSLKPEDTAVYYCAVYVHRFLDGRVRSYRGDYWGQGTQVTVSW,high polyreactivity
18,QVQLVESGGGLVQAGGSLRLSCAASGRTFWRNAMGWYRQAPGKERELVAAISSSGDRTYYADSVKGRFTISRDNAKNTVYLQMNSLKPEDTAVYYCAARTFWGAYDYWGQGTQVTVSS,high polyreactivity
19,QVQLVESGGGLVQAGGSLRLSCAASGRTFWSNAMGWYRPAPGKERELVAAITWSGGSTSYADSVKGRFTISRDNAKNTVYLQMNSLKPEDTAVYYCAAGKGVELAKLDYWGQGTQVTVSS,low polyreactivity
20,QVQLVESGGGLVQAGGSLRLSCAASGRTFWSNAMGWYRQAPGKERELVAAISTGAGSTYYADSVKGRFTISRDNAKNTVYLQMNSLKPEDTAVYYCAAVYNGALYNYYYWGEGTQVTVSS,high polyreactivity
21,QVQLVESGGGLVQAGGSLRLSCAASGRTFWSYAMGWYRQAPGKEREFVAAISRRGGITYYADSVKGRFTLSRDNAKNTVYLQMNSLKPEDTAVYYCAKGAQSYYGGQVKYDYWGQGTQVTVSS,high polyreactivity

# Reference: the nanobody polyreactivity screen of Harvey et al. (2022)
